B1: HA-Vpx HIV-2.Gh1 WT [HIV-2 (Ghana-1 strain)] / DCAF1, endogenous (DDB1- and Cul4A-associated factor 1) [human (endogenous in HeLa)] (parent complex)
chain 1: MTDPRERVPPGNSGEETIGEAFEWLDRTIEALNREAVNHLPRELIFQVWQRSWRYWHDDQGMSPSYTKYRYLCLMQKAVFIHFKRGCTCLGGGHGPGGWRSGPPPPPPPGLV
chain 2: not shown

Variants of: B1
Assay: co-immunoprecipitation (anti-Flag IP of TASOR-Flag, western blot band quantification); Ternary read-out: endogenous DCAF1 recovered with TASOR-Flag (m24) in the presence of this HA-Vpx mutant, HeLa cells; lane 12; no value printed for the WT lane

| Variant | screen value |
| --- | --- |
| chain 1 Q47A, chain 1 V48A | 0.2 |

Variants of: B1
Assay: co-immunoprecipitation (anti-Flag IP of TASOR-Flag, western blot band quantification); Ternary read-out: endogenous DCAF1 recovered with TASOR-Flag (m24) in the presence of this HA-Vpx mutant, HeLa cells; lane 11; no value printed for the WT lane

| Variant | screen value |
| --- | --- |
| chain 1 V48A | 0.5 |

Variants of: B1
Assay: co-immunoprecipitation (anti-Flag IP of TASOR-Flag, western blot band quantification); Ternary read-out: endogenous DCAF1 recovered with TASOR-Flag (m24) in the presence of this HA-Vpx mutant, HeLa cells; lane 10; no value printed for the WT lane

| Variant | screen value |
| --- | --- |
| chain 1 Q47A | 1 |

Reference: publication PMC8570500 (2021)
